Molecular target: the molecule itself
Assay: SEC-MALS; SEC-MALLS, S-200 Superdex 10/300, 0.5 ml/min, 1x PBS (legend: TBS), protein at 33 µM; monomer and dimer

B1: purified recombinant mouse CAVII protein (mCAVII) (enzyme, UniProt Q9ERQ8 1-264, looked up)
chain: MTGHHCWGYGQDDGPSNWHKLYPIAQGDRQSPINIISSQAVYSPSLQPLELFYEACMSLSITNNGHSVQVDFNDSDDRTVVSGGPLEGPYRLKQLHFHWGKKRDMGSEHTVDGKSFPSELHLVHWNAKKYSTFGEAAAAPDGLAVVGVFLETGDEHPSMNRLTDALYMVRFKDTKAQFSCFNPKCLLPTSRHYWTYPGSLTTPPLSESVTWIVLREPIRISERQMEKFRSLLFTSEDDERIHMVDNFRPPQPLKGRVVKASFQA
notes: carbonic anhydrase VII, mouse; theoretical size of the monomer printed as 30.5 kDa; also called carbonic anhydrase VII; source: CHOEBNALT85 cell line, produced as a secreted protein, purified
  stoichiometry N: 2

From article doi:10.1101/736868 (bioRxiv, 2019)
